This is an account of results in article PMC4486954, “Highly homologous proteins exert opposite biological activities by using different interaction interfaces” (Scientific Reports, 2015).

B1: iASPP Pro array peptide 68-82 (spot A15) (peptide)
peptide: Ac-PRYSSSSIPEPFGSR-{cellulose membrane}
modifications: also: C-terminus bound to cellulose membrane via amide
notes: iASPP (human) residues 68-82; source: synthetic peptide on CelluSpots array (INTAVIS)
B2: iASPP Pro array peptide 60-74 (spot A14) (peptide)
peptide: Ac-QAGPPSRPPRYSSSS-{cellulose membrane}
modifications: also: C-terminus bound to cellulose membrane via amide
notes: iASPP (human) residues 60-74; source: synthetic peptide on CelluSpots array (INTAVIS)
B3: iASPP Pro array peptide 380-394 (spot C6) (peptide)
peptide: Ac-NAFWEHGASRAMLPG-{cellulose membrane (amide bond)}
modifications: also: C-terminus bound to cellulose membrane via amide
notes: iASPP (human) residues 380-394; source: synthetic peptide on CelluSpots array (INTAVIS)
B4: iASPP Pro array peptide 324-338 (spot B23) (peptide)
peptide: Ac-SDAGSYRRSLGSAGP-{cellulose membrane (amide bond)}
modifications: also: C-terminus bound to cellulose membrane via amide
notes: iASPP (human) residues 324-338; source: synthetic peptide on CelluSpots array (INTAVIS)
B5: iASPP Pro array peptide 388-402 (spot C7) (peptide)
peptide: Ac-SRAMLPGSPLFTRAP-{cellulose membrane (amide bond)}
modifications: also: C-terminus bound to cellulose membrane via amide
notes: iASPP (human) residues 388-402; source: synthetic peptide on CelluSpots array (INTAVIS)
B6: iASPP Pro array peptide 540-554 (spot D3) (peptide)
peptide: Ac-KKQYQQIISRLFHRH-{cellulose membrane}
modifications: also: C-terminus bound to cellulose membrane via amide
notes: iASPP (human) residues 540-554; source: synthetic peptide on CelluSpots array (INTAVIS)
B7: iASPP Pro array peptide 396-410 (spot C8) (peptide)
peptide: Ac-PLFTRAPPPKLQPQP-{cellulose membrane (amide bond)}
modifications: also: C-terminus bound to cellulose membrane via amide
notes: iASPP (human) residues 396-410; source: synthetic peptide on CelluSpots array (INTAVIS)
B8: iASPP Pro array peptide 548-562 (spot D4) (peptide)
peptide: Ac-SRLFHRHGGPGPGGP-{cellulose membrane}
modifications: also: C-terminus bound to cellulose membrane via amide
notes: iASPP (human) residues 548-562; source: synthetic peptide on CelluSpots array (INTAVIS)
B9: iASPP Pro array peptide 148-162 (spot B1) (peptide)
peptide: Ac-GAGSSLGRAPSPRPG-{cellulose membrane (amide bond)}
modifications: also: C-terminus bound to cellulose membrane via amide
notes: iASPP (human) residues 148-162; source: synthetic peptide on CelluSpots array (INTAVIS)
B10: iASPP Pro array peptide 604-618 (spot D11) (peptide)
peptide: Ac-SMEMRSVLRKAGSPR-{cellulose membrane}
modifications: also: C-terminus bound to cellulose membrane via amide
notes: iASPP (human) residues 604-618; also called iASPP 604-618; source: synthetic peptide on CelluSpots array (INTAVIS)
B11: iASPP Pro array peptide 156-170 (spot B2) (peptide)
peptide: Ac-APSPRPGPGPLRQQG-{cellulose membrane (amide bond)}
modifications: also: C-terminus bound to cellulose membrane via amide
notes: iASPP (human) residues 156-170; source: synthetic peptide on CelluSpots array (INTAVIS)
B12: iASPP Pro array peptide 340-354 (spot C1) (peptide)
peptide: Ac-GTLPRSWQPVSRIPM-{cellulose membrane (amide bond)}
modifications: also: C-terminus bound to cellulose membrane via amide
notes: iASPP (human) residues 340-354; source: synthetic peptide on CelluSpots array (INTAVIS)
B13: iASPP Pro array peptide 172-186 (spot B4) (peptide)
peptide: Ac-PTPFDFLGRAGSPRG-{cellulose membrane (amide bond)}
modifications: also: C-terminus bound to cellulose membrane via amide
notes: iASPP (human) residues 172-186; source: synthetic peptide on CelluSpots array (INTAVIS)
B14: iASPP Pro array peptide 484-498 (spot C19) (peptide)
peptide: Ac-VARPLSPTRLQPALP-{cellulose membrane}
modifications: also: C-terminus bound to cellulose membrane via amide
notes: iASPP (human) residues 484-498; source: synthetic peptide on CelluSpots array (INTAVIS)
B15: iASPP Pro array peptide 132-146 (spot A23) (peptide)
peptide: Ac-YGSLDRATSPRPRAF-{cellulose membrane (amide bond)}
modifications: also: C-terminus bound to cellulose membrane via amide
notes: iASPP (human) residues 132-146; source: synthetic peptide on CelluSpots array (INTAVIS)
B16: iASPP Pro array peptide 196-210 (spot B7) (peptide)
peptide: Ac-FFPERGPSPRPPATA-{cellulose membrane (amide bond)}
modifications: also: C-terminus bound to cellulose membrane via amide
notes: iASPP (human) residues 196-210; source: synthetic peptide on CelluSpots array (INTAVIS)
B17: iASPP Pro array peptide 348-362 (spot C2) (peptide)
peptide: Ac-PVSRIPMPPSSPQPR-{cellulose membrane (amide bond)}
modifications: also: C-terminus bound to cellulose membrane via amide
notes: iASPP (human) residues 348-362; source: synthetic peptide on CelluSpots array (INTAVIS)
B18: iASPP Pro array peptide 308-322 (spot B21) (peptide)
peptide: Ac-TLPRNYKVSPLASDR-{cellulose membrane (amide bond)}
modifications: also: C-terminus bound to cellulose membrane via amide
notes: iASPP (human) residues 308-322; source: synthetic peptide on CelluSpots array (INTAVIS)
B19: iASPP Pro array peptide 356-370 (spot C3) (peptide)
peptide: Ac-PSSPQPRGAPRQRPI-{cellulose membrane (amide bond)}
modifications: also: C-terminus bound to cellulose membrane via amide
notes: iASPP (human) residues 356-370; source: synthetic peptide on CelluSpots array (INTAVIS)

cellulose membrane = C-terminus attached to a cellulose membrane (CelluSpots array) through an amide bond

The target of the first test is T1, iASPP Ank-SH3 (Homo sapiens, UniProt Q8WUF5).
T1 construct: (2) iASPP Ank-SH3 603-828; HLT tag (His tag + lipoyl domain + TEV site) (N, cleaved yes); made in house; host or cells: E. coli HMS 174 (Novagen)
T1 sequence (Q8WUF5 603-828): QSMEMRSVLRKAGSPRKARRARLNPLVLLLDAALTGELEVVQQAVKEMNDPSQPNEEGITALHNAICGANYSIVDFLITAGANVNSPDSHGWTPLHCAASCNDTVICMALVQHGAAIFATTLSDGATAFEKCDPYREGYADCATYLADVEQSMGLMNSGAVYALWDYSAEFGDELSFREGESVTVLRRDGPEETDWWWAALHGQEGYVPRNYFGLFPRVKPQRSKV
Put plainly: Fluorescence anisotropy binding of fluorescein-labeled iASPP Pro derived peptides to iASPP Ank-SH3. Particulars: 250 μM iASPP Ank-SH3 titrated into 100 nM fluorescein-labeled peptide, 10 °C, 20 mM Hepes pH 7.3, ionic strength 50 mM. Here is the method: Binding of the iASPP Pro-derived peptides to iASPP Ank-SH3 was measured by fluorescence anisotropy using a PerkinElmer Life Sciences LS-50b spectrofluorimeter equipped with a Hamilton microlab M dispenser. Titration of iASPP Ank-SH3 into iASPP Pro derived fluorescein-labeled (FL) peptides was performed at 10 °C in 20 mM Hepes buffer, pH 7.3, 43 mM NaCl (total ionic strength = 50 mM), 10% glycerol and 5 mM β-mercaptoethanol. The excitation wavelength was set at 480 nm and the emission measured at 530 nm. The labeled peptide, dissolved in 1 ml buffer to a final concentration of 100 nM, was placed in the cuvette. 250 μM iASPP Ank-SH3 was placed in the dispenser and aliquots of 10–20 μl were added at 1.5 min intervals. The solution was then stirred for 30 sec, and the fluorescence and anisotropy were measured. Data were analyzed using the program Origin8 (OriginLab) and were fit to 1:1 binding model:
[drawing 1] (R- measured fluorescence anisotropy, R0- anisotropy value corresponding to the free peptide, ∆R- amplitude of the fluorescence anisotropy change, [Protein]- protein concentration, Kd- dissociation constant).
A general note: In fluorescence polarisation assays a small probe gives low polarisation when free and higher when bound to something large.
On to “APSPRPGPGPLRQQG [iASPP 156-170, iASPP Pro derived peptide, residues 156-170]”, for which the “binding to iASPP Ank-SH3 (in words)” value is reported as “no binding”.

Turning to “VARPLSPTRLQPALP [iASPP 484-498, iASPP Pro derived peptide, residues 484-498]”, the “binding to iASPP Ank-SH3 (in words)” value is listed as “too weak to quantify”.

As to “YGSLDRATSPRPRAF [iASPP 132-146, iASPP Pro derived peptide, residues 132-146]”, the “binding to iASPP Ank-SH3 (in words)” value is on record as “too weak to quantify”.

Take “FFPERGPSPRPPATA [iASPP 196-210, iASPP Pro derived peptide, residues 196-210]”: the “binding to iASPP Ank-SH3 (in words)” value is “no binding”.

On to “PRYSSSSIPEPFGSR [iASPP 68-82, iASPP Pro derived peptide, residues 68-82]”, for which the “binding to iASPP Ank-SH3 (in words)” value is given as “no binding”.

In the case of “TLPRNYKVSPLASDR [iASPP 308-322, iASPP Pro derived peptide, residues 308-322]”, the “binding to iASPP Ank-SH3 (in words)” value is on record as “no binding”.

As for “SDAGSYRRSLGSAGP [iASPP 324-338, iASPP Pro derived peptide, residues 324-338]”, the “binding to iASPP Ank-SH3 (in words)” value is reported as “no binding”.

In the case of “PLFTRAPPPKLQPQP [iASPP 396-410, iASPP Pro derived peptide, residues 396-410]”, the “binding to iASPP Ank-SH3 (in words)” value is “too weak to quantify”.

As to “PTPFDFLGRAGSPRG [iASPP 172-186, iASPP Pro derived peptide, residues 172-186]”, the “binding to iASPP Ank-SH3 (in words)” value is recorded as “too weak to quantify”.

A further test addresses T2, HLT-iASPP Ank-SH3 (human, UniProt Q8WUF5 603-828).
T2 construct: iASPP (human), four ankyrin repeats and SH3 domain, residues 603-828, Swiss-Prot Q8WUF5; Detected on the arrays by its His tag (anti His HRP antibody); source: E. coli HMS 174, purified (Nickel Sepharose, size exclusion chromatography); not shown: HLT (His tag, lipoyl domain, TEV protease cleavage site), N-terminal, kept
T2 sequence (looked up): T1 sequence (Q8WUF5 603-828)
Put plainly: peptide or protein array; CelluSpots array of 79 partly overlapping 15-residue iASPP Pro peptides on cellulose; 5 uM HLT-iASPP Ank-SH3 in 20 mM phosphate pH 7.0, ionic strength 150 mM, 5 mM βME, 10% glycerol, 2.5% skimmed milk; 4 °C overnight; detected with anti His HRP antibody. Particulars: both partners purified.
With B1, the binding result is on record as “binds”.

On to B2, for which the binding result is recorded as “binds”.

Regarding B3, the binding result was “binds”.

In the case of B4, the binding result is given as “binds”.

With B5, the binding result is on record as “binds”.

With B6, the binding result is on record as “binds”.

Consider B7, for which the binding result is given as “binds”.

Consider B8, for which the binding result is “binds”.

On to B9, for which the binding result is “binds”.

On to B10, for which the binding result is “binds”.

Take B11: the binding result is on record as “binds”.

With B12, the binding result is listed as “binds”.

As for B13, the binding result is “binds”.

Consider B14, for which the binding result is listed as “binds”.

Regarding B15, the binding result is “binds”.

Consider B16, for which the binding result was “binds”.

Consider B17, for which the binding result is recorded as “binds”.

Consider B18, for which the binding result is “binds”.

In the case of B19, the binding result is listed as “binds”.
